What was measured:
[1] = Stability tests of Asp^B28 human insulin preparations in Penfill cartridges, varying NaCl (Example III); type: physicochemical; conditions: phosphate 13.5 mM, pH 7.40
Protocol: 369.4 mg Asp^B28 human insulin was dissolved in water by adding 1.6 ml 0.2N HCl and 49 μl zinc chloride solution (40 mg Zn/ml). 40 g of a solution containing 40 mg/g glycerol, 3.75 mg/g phenol and 4.30 mg/g m-cresol was added to the solution while mixing. 10 g of a solution containing 24.0 mg/g disodium phosphate dihydrate and 11 μl/g 2N sodium hydroxide was added while mixing. Finally varying amounts (0 g to 4.38 g) of a solution containing 40 mg/g sodium chloride were added while mixing up to a sodium chloride concentration mentioned in Table 4. pH was adjusted to 7.40±0.05 and water added up to 100 ml. The Asp^B28 Human insulin preparations were introduced into Penfill® cartridges and subjected to stability tests at 25° C. and 37° C.

[2] = Stability tests of Asp^B28 human insulin preparations in Penfill cartridges, varying phosphate and NaCl (Example IV); type: physicochemical; conditions: 6 weeks at 37° C., 19.6 μg Zn/100 U insulin, pH 7.4
Protocol: 375.7 mg Asp^B28 human insulin was dissolved in water by adding 1.6 ml 0.2N HCl and 49 μl zinc chloride solution (40 mg Zn/ml). 20 g of a solution containing 80 mg/g glycerol, 7.50 mg/g phenol and 8.60 mg/g m-cresol was added to the solution while mixing. Varying amounts (3.71 g to 6.71 g) of a solution containing 24.0 mg/g disodium phosphate dihydrate and 11 μl/g 2N sodium hydroxide was added while mixing, finally varying amounts (0 g to 3.65 g) of a solution containing 40 mg/g sodium chloride were added while mixing so as to obtain a sodium chloride concentration mentioned in table 6. pH was adjusted to pH 7.40±0.05 and water added up to 100 ml. The Asp^B28 Human insulin preparations were introduced into Penfill® cartridges and subjected to stability tests at 25° C. and 37° C. The stability data at the two different temperatures and three different phosphate concentrations and at 19.6 μg Zn/100 U insulin and pH=7.4 are summarized in Tables 4, 5 and 6.

[3] = 6 weeks at 37° C., NaCl added 5 mM, total Cl^- 8.5 mM
[4] = 6 weeks at 37° C., NaCl added 12.5 mM, total Cl^- 16.3 mM
[5] = 6 weeks at 37° C., NaCl added 20 mM, total Cl^- 23.8 mM
[6] = 6 weeks at 37° C., NaCl added 25 mM, total Cl^- 28.8 mM
[7] = 6 weeks at 37° C., NaCl added 30 mM, total Cl^- 33.8 mM
[8] = 12 weeks at 25° C., NaCl added 0 mM, total Cl^- 3.8 mM
[9] = 12 weeks at 25° C., NaCl added 5 mM, total Cl^- 8.5 mM
[10] = 12 weeks at 25° C., NaCl added 12.5 mM, total Cl^- 16.3 mM
[11] = 12 weeks at 25° C., NaCl added 20 mM, total Cl^- 23.8 mM
[12] = 12 weeks at 25° C., NaCl added 25 mM, total Cl^- 28.8 mM
[13] = 12 weeks at 25° C., NaCl added 30 mM, total Cl^- 33.8 mM
[14] = NaCl added 0 mM, total Cl^- 3.8 mM, phosphate 5 mM
[15] = NaCl added 0 mM, total Cl^- 3.8 mM, phosphate 7 mM
[16] = NaCl added 0 mM, total Cl^- 3.8 mM, phosphate 9 mM
[17] = NaCl added 5 mM, total Cl^- 8.8 mM, phosphate 5 mM
[18] = NaCl added 5 mM, total Cl^- 8.8 mM, phosphate 7 mM
[19] = NaCl added 5 mM, total Cl^- 8.8 mM, phosphate 9 mM
[20] = NaCl added 10 mM, total Cl^- 13.8 mM, phosphate 5 mM
[21] = NaCl added 10 mM, total Cl^- 13.8 mM, phosphate 7 mM
[22] = NaCl added 10 mM, total Cl^- 13.8 mM, phosphate 9 mM
[23] = NaCl added 15 mM, total Cl^- 18.8 mM, phosphate 5 mM
[24] = NaCl added 15 mM, total Cl^- 18.8 mM, phosphate 7 mM
[25] = NaCl added 15 mM, total Cl^- 18.8 mM, phosphate 9 mM

With Asp^B28 human insulin the “Asp^B28 Des-amido insulins formed” value [1, 3] was 4.1%, the “Di- & polymers formed” value [1, 3] was 0.99% and the “Asp^B28 Des-amido insulins formed” value [1, 4] was 3.6%. For the same substance, the “Di- & polymers formed” value [1, 4] was 0.92%, the “Asp^B28 Des-amido insulins formed” value [1, 5] was 3.0% and the “Di- & polymers formed” value [1, 5] was 0.87%. The “Asp^B28 Des-amido insulins formed” value [1, 6] was 3.0%, the “Di- & polymers formed” value [1, 6] was 0.82% and the “Asp^B28 Des-amido insulins formed” value [1, 7] was 2.8%. The “Di- & polymers formed” value [1, 7] was 0.80%, the “Asp^B28 Des-amido insulins formed” value [1, 8] was 2.7% and the “Di- & polymers formed” value [1, 8] was 0.36%. The “Asp^B28 Des-amido insulins formed” value [1, 9] was 2.3%, the “Di- & polymers formed” value [1, 9] was 0.32% and the “Asp^B28 Des-amido insulins formed” value [1, 10] was 1.8%. For the same substance, the “Di- & polymers formed” value [1, 10] was 0.39%, the “Asp^B28 Des-amido insulins formed” value [1, 11] was 1.7% and the “Di- & polymers formed” value [1, 11] was 0.39%. The “Asp^B28 Des-amido insulins formed” value [1, 12] was 1.8%, the “Di- & polymers formed” value [1, 12] was 0.38% and the “Asp^B28 Des-amido insulins formed” value [1, 13] was 1.7%. For the same substance, the “Di- & polymers formed” value [1, 13] was 0.38%, the “Asp^B28 Des-amido insulins formed” value [2, 14] was 4.7% and the “Di- & polymers formed” value [2, 14] was 1.4%. For the same substance, the “Asp^B28 Des-amido insulins formed” value [2, 15] was 4.3%, the “Di- & polymers formed” value [2, 15] was 1.2% and the “Asp^B28 Des-amido insulins formed” value [2, 16] was 4.9%. For the same substance, the “Di- & polymers formed” value [2, 16] was 1.2%, the “Asp^B28 Des-amido insulins formed” value [2, 17] was 3.7% and the “Di- & polymers formed” value [2, 17] was 1.3%. For the same substance, the “Asp^B28 Des-amido insulins formed” value [2, 18] was 3.6%, the “Di- & polymers formed” value [2, 18] was 1.2% and the “Asp^B28 Des-amido insulins formed” value [2, 19] was 4.0%. The “Di- & polymers formed” value [2, 19] was 1.1%, the “Asp^B28 Des-amido insulins formed” value [2, 20] was 3.4% and the “Di- & polymers formed” value [2, 20] was 1.2%. For the same substance, the “Asp^B28 Des-amido insulins formed” value [2, 21] was 3.1%, the “Di- & polymers formed” value [2, 21] was 1.1% and the “Asp^B28 Des-amido insulins formed” value [2, 22] was 3.7%. For the same substance, the “Di- & polymers formed” value [2, 22] was 1.0%, the “Asp^B28 Des-amido insulins formed” value [2, 23] was 3.1% and the “Di- & polymers formed” value [2, 23] was 1.1%. For the same substance, the “Asp^B28 Des-amido insulins formed” value [2, 24] was 3.1%, the “Di- & polymers formed” value [2, 24] was 1.0% and the “Asp^B28 Des-amido insulins formed” value [2, 25] was 3.5%. The “Di- & polymers formed” value [2, 25] was 1.0%.

From patent US5866538A, “Insulin preparations containing NaCl” (Novo Nordisk A/S, priority 1996, dated 1999)
